# B1: TPR t1 (parent)
# chain: GACCAAUCUGCCCUCAGAGCUCGAGAACAUCUUCGGAUGCAGAGGAGGCAGGCUUCGGUGGCGCGAUAGCGCCAACGUCCUCAACCUCCAAUGCAUCCCACCACAUGAUGAUGCCUGAAGAGCCUUGGUUUUUUG
# Variants of: B1
# Assay: polymerase ribozyme fitness, log enrichment relative to wild type (log ratio); higher = more active; in vitro selection for triplet polymerase activity
# Summary of the method: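 In triplicate, a single round of in vitro selection was run on each mutant library, PCR-built and transcribed, covering one subunit of a heterodimeric triplet polymerase ribozyme. Frozen incubation at −7 °C followed annealing with a biotinylated primer, partner subunit and triplets, and extended constructs were then gel-excised, streptavidin-captured and taken through RT-PCR. Fitness is the logarithm of genotype enrichment over wild-type enrichment, from inverse-variance-weighted replicate averages of Illumina-sequenced inputs and outputs. […] only genotypes with ≥10 input reads and ≥1 read per output were kept.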
row,Variant,polymerase ribozyme fitness (log ratio)
1,U54C C72U C82U A83C C115G G117A U129C,-4.96
2,C53U U132A,-0.215
3,U55G C85A,-1.66
4,U54G C104G,-7.42
5,C53U G69A A103C G120U G128C U131G,-6.03
6,U55G C102A G110A U130A,-6.51
7,U54A C56U G93A,0.304
8,C56U G69U G120U,-1.89
9,C56U U78C U81G C94U,-1.62
10,C56U C115U U126A,-2.48
11,C56A C88U G120U,-0.86
12,U54G A95G U130A,-1.11
13,C56A C72U,-0.391
14,C56G G63U,-4.87
15,C56U C73A C85A A91G,-5.09
16,G57U A95U A121U C124U,1.18
17,C56A C73G,-2.34
18,C56G C62U,0.102
19,G57U A84C C101G G122A,-3.55
20,C56U U59G C114G,-1.96
21,U55A G71A C82A C115A,-0.992
22,C56G U116C,-0.924
23,U54C U81C A95C,-0.789
24,C56A C72U U109G,-5.76

row,Variant,polymerase ribozyme fitness (log ratio)
1,U54A G113U C114G A121C,-2.43
2,C56G G122A,-1.46
3,C56G U92G U96A G122A,-4.6
4,C56A C123G,1.24
5,G57C G61U U96G,-1.85
6,C56G G57U C101G A111C,-1.77
7,C53U G120A U130A,0.491
8,C56A C82A G128A,-2.53
9,C56A A121U,1.42
10,C56A A121G,1.77
11,G57C G71U G113C,-3.12
12,U55A G93A A121U,1.57
13,U54A U59G,-0.218
14,G57A G69U C86A C101G,-2.75
15,C56G U92C,-1.23
16,U54G C89U,-0.559
17,U54A A108U,-4.71
18,C56U G122A,-0.36
19,C56U U87A,-0.176
20,C53U U92A G113A G117A C124A,-5.57
21,U54G G117A,-2
22,C56U U130G,-1.27
23,C53U G113U,-1.43
24,C56U C82U,-0.0659

row,Variant,polymerase ribozyme fitness (log ratio)
1,U55G U116G,-2.12
2,C56G U109A G113C,-5.42
3,G57A C72U G113A C114U,-2.53
4,C56A C73U A84U G120U,-1.05
5,C56G G107A,-5.95
6,U55C G120U C123G U131A,-0.058
7,G57A G63U G122A,-2.81
8,U55C C70A C97U U116A,-4.83
9,U54G U125A U126A,-2
10,C56A U81A G117A,-1.94
11,U54C A118G,-0.7
12,U55A U78G C82A G110A,-2.58
13,U55C C56U,0.598
14,C56U A95C A118C C124A U132A,-0.917
15,C56U G127A,-1.2
16,C56U G127C,-1.62
17,U54G A84C,-0.587
18,U55G G69A U112C G120C,-2.49
19,C56G G110U,-1.13
20,C56U A90G C104U G117A A118U U131G,-2.92
21,G57C C114G U131C,-2.69
22,C56G G69U C82U A95U G127U,-3.08
23,C56A A111U U129C,-4.47
24,U54C C115U,-0.738

row,Variant,polymerase ribozyme fitness (log ratio)
1,U54C C115A,-0.609
2,U54G C86U G117U,-2.55
3,C53U G69U,0.587
4,C53U U129A,-1.24
5,U55A G69U C82G,0.171
6,C56A C62U C124U,1.48
7,U55A C101U A121U,1.89
8,C56U G110U A121U,-1.11
9,U54C C97G C123U,-2.86
10,C56A G60A U116G G135A,-3.36
11,C56G U116C U130G,-0.701
12,G57A C72A G120A,-0.828
13,C56U G128C,-2.63
14,C56U C72A A100C C104U A121G,1.21
15,C56U C98U,-0.841
16,C56A C101A,-0.979
17,C53U G122A,-0.631
18,C53U G69U C70U C82U,-0.71
19,U55C U125A,-1.11
20,C56G G69C A83C C104U G135A,-4.55
21,U55G G77C A100U G120C U131A,0.465
22,U54G C88A A105U,-2.56
23,U54A U87A G117U,-2.44
24,C56U U92G,-2.12

row,Variant,polymerase ribozyme fitness (log ratio)
1,C56U U92A,-2.86
2,U54A U81G G120A,-3.57
3,C56G G135A,-1.39
4,C56G C114U,-2.55
5,C56U U106A G120A,0.351
6,U54G U109G,-4.29
7,U54A C94A G113U,-3.97
8,G57A G71U C88G,-5.05
9,C56G C94U,-0.644
10,C56G C64G,-7.2
11,U55C G58A,0.121
12,C56G G58A G77A,0.427
13,U55G C79A C82U,-1.09
14,U55C G61A U125A,-0.857
15,G57C G63A G69U,-1.39
16,C56U C86G A111U U129G,-5.47
17,C56G C86U,0.0765
18,U54A C64U A105U,-2.69
19,C56G G63A G135C,-2.89
20,U55G C73U G110A,-0.834
21,G57U C62G U112A,-2.56
22,G57C G120U C124U,0.197
23,C56U A100U U129A,-1.49
24,C56A C79A A95C C101U U129A,-4.76

row,Variant,polymerase ribozyme fitness (log ratio)
1,G57U A119U G120U,-0.267
2,C53U U87A C97A,-5.45
3,C56A A68G,-2.75
4,C56G C98A U112A C123A,-4.9
5,C53U U126C,-1.07
6,G57C A100U U112C U125C,0.722
7,U54C G61A,-0.24
8,C53U G69U C88G G110C C115A A121C C124G,-2.79
9,G57A C62G,-3.37
10,U54A C56U U133A,-0.112
11,G57U C72U C102A,-2.25
12,G57A C64G U67G U81A A111U,-6.28
13,C56G U96A C123G U130C,0.506
14,C56G U96G,-1.51
15,G57A C72U,-1.29
16,C53U U55G,-0.16
17,C56A A68G G120C,-4.19
18,C56U G113U C123G U130G,-2.36
19,U54G G63U C88U C89A A103U G122U C124A,-7.39
20,C56U C98A G120U,-4.12
21,U55C C85A,-2.73
22,C56A A119G,0.651
23,G57A C72A C85U C99G U106G,-7.04
24,C56G A74U G120U G127A,-1.98

row,Variant,polymerase ribozyme fitness (log ratio)
1,C56U U81C,0.0987
2,G57U C98U G110A U112G,-5.09
3,U54A C62U C72G,-1.24
4,C56U G63C G110A,-4.56
5,U54G G60U C115A,-3.58
6,C56U C73G G122A U130A,-2.91
7,C56A G60A,-0.181
8,U55C A105G C123G,-0.655
9,G57U C104A U106C U125A U131C,-1.82
10,C56U G61U,-2.88
11,C53U U133A,-0.343
12,C56A C73U C124A,1.29
13,C56U C124A,1.7
14,C56U A121U,1.6
15,C56A G63C,-2.33
16,U55G A95U A111C A121U G127C,0.185
17,G57A C94U,-2.53
18,C56G C89A A105G C114U,-5.42
19,G57A C76U A90U,-1.14
20,U54G C56A U132C,-1.66
21,C56U A91U,-1.19
22,C56G U78A G117A,-2.04
23,U55A U81A G107U A111U,-4.76

# — the RNAGym collection of RNA variant scans (doi:10.1073/pnas.2313332121)
